In patent US20160051695A1:

What was measured:
[1] = target: human HER2 (ErbB2), human epidermal growth factor receptor 2 protein (human) (UniProt P04626); assay: flow cytometry on SKOV-3 cells, background without primary antibody
[2] = target: human HER2 (ErbB2), human epidermal growth factor receptor 2 protein (human) (UniProt P04626); assay: flow cytometry on JIMT-1 cells, background without primary antibody
[3] = target: Jurkat cells (human T leukemia cells; do not express human HER2); assay: flow cytometry on HER2-negative Jurkat cells, background without primary antibody

MFI [1]: 8
MFI [2]: 3.29
MFI [3]: 9
Substance: goat F(ab')2-anti-human IgG (H+L)-RPE (Southern Biotech, Cat. No. 2043-09)
